# According to the DeepSol protein solubility set:
# Assay: soluble on expression in E. coli; label from the status in PepcDB or PDB records
row,Sequence,soluble on expression in E. coli
1,MAHHHHHHMQTNVLERIRALEADIERCIDSIVQQDLFAASIENERHRILLDHFTLQQVGIVRSTAEKLLDVYLDEDDIVQVQNAPAESPDNIAAAVKEFEAKIADIREYHHIYRDLPPVKDELAVPSPRLLDDIFTVHERYGACFDMDAHYNRYSAFMVHTKTLAEGCVSASAEVKKELAPLSPSSVLKWSSMWPGRLDFFSFTKALPQLLLHEVEAHRKIVGFALYKPFVAELLAYLEGFYRRIHPLKPAALERLMAEVESDAEKYWASLVEVKAEVTSVAATTAAASTEDEQADVQDVEDERVEEREAGGAAGSSSKGQTAAPVRIAVGNKVACGLAIPPSLRQHVKKFSLWPLPLIEKLIEDVGQASGTSDGAVASTSKLPTSVADVKMVCLMEAKAAALLQSFLYTTLETTNTSLLRDYSRTLEELENDREVAEQEFLDSLEEVRKNSADTMEGTVAHAAEYNLKLALEDSKGSRRGRHGKASAPAPVAAAPAAPELPLEEEEEQLIGENGEPIPRWLAQLHQLDKMFRCDVCGGTIYKGPKVFREHFGAERHAEGLRRLGVMHHLKSYEGITSIRQVVEMREQLTGGESGFRKRLRDNTDNEEIQDARGHVVTAKEYLRLQQRRR,not soluble
2,MAHHHHHHMRFLSSSAVSPSPIRPSTGGASGKERLHHELPILHWRAGGGGEVGGGQHDDADSSDEYNEAHLCCDDWASSPAEPAAAAATFQTRQSDTPDGLHVDSDDDDNADDDGGEDTAGQTWIEEALRRAEAKCAVLRLELTFATERAVAAEANARARERECAELHALASRMQAQLAAAQMTAEWATANTRADAEVQVAACTASLDDIAASAFSSPNSPNRLGTTSLSMRKGTALADGTVWRRRHDIVAQELATLKVSMAEQLAVLDRLGMQPPFSEELVCAAERRLRHVKVAHAPGTAMKASQPDATIPGTPHTLTRSTCVDSAASADLSAGGASVTATTKKIQVRNGNKIAALLNLRKQNRHQEKPAAAAADAMATGVTDSATTPSTSAPPVKRDGSEDCRTTLDAKENHYVV,not soluble
3,MAHHHHHHMRLYNSLKQELVAATGAKMLGSGGLIDWSKHQVFDNPSDISQTFNEIIDMLAEYFDVDVYATRLNYYRDGTQWKPQHHDSHAYGGRALREDFTVGLSLGATRSLLFVHEASQRDFNFPQLNGDCFAFTGEVNSLFTHGVPRVHTPTGDRFSIIAWGRRRNLNERNGGVPSSAAAQVKGYRINTMEDAVEVAKQLVAAEPGAAAAKKAMPPPCASGDASSGGVATATRPAKRHKRRLQ,soluble
4,MAHHHHHHMRPKKSAFKLAQRGERHLLHGNSEVSNFYGISESGFSNSRPPPYLLRFDKCNDIIAYTNEVDSECLKQIKNLAMLDIIKGHVTILPDVHLGKGIIIGSVFLTKDFIIPNGVGVDIGCGVLCVKINKLKKKNLREHIINNIYKKIKRNVPLSFDSHEKEVFDAKKVLDGLVAKYASRNMAHIMTPRHLKQMGTLGGGNHFIEIAYDASDGGEEALSGNQSGETHQNDAPHSYTSEQNHSPESDIYILIHSGSRNIGKRTAEFYDELASQESKVKRNDLAYLDLKKEQGQNYLKDMQLCLEYAKCNRIYMMKIIERIIYEEVNCTLDWQSVINIHHNFCNQELVTYVHSGEVKREYMYVTRKGATSSKKNQLGVIPGNMKVGSYIVRGKGNKLSYSSCSHGCGRVLSRTHAKKIINQTDFVNIMRGVRCDTNARIRDEAPQAYKNLGQVLRNQDSLVHVVRRLLPLINVKGE,not soluble
5,MAHHHHHHMRPSSHRRPKSSAASDVGRRIRYSDAPPWDRSIRVNGDRALSAGRASRRGPEMMKAKLQGTPARPSHCNLVTTQAATLVATVPPVNEPQVELMSQLQDVVVRLSQSAVGEKQRLAHMQQRLDAYAALMREQDRMIDELRGMNIRLQKERDALILFRQQSLNHDLHLMNNLENDGGIDEEARRAYAKYEGQNNSYGTPCNGSLGAMTPRSRGFVRSLVAQLRDERRKRLEVEEQSSRMIGEQQLTIQRLEDRLRPQVVAPRSVLVARLESPHVSSHQRASNEEKDAVNTPLQCPCVDSVSAPMSSPNFSVVNQEKRLTEVNPMAPAVPPIPLPERNKEAVITEQVHQSPAVSMDQQITPPLEVPLKIHSTSYDDAAAILFDIRKRHGL,not soluble
6,MAHHHHHHMRRFCTARVSSYVKRAPLLLPRGGRRWRSGAGTTADGGGEKEYIADSFESTAGSNAYAAMELAAEARREIHELWLSAETALEREKRVQQVAALIEKYKLDPSTPREADVSRGLGDAFDRLLLLCLPLGKTDAKGTDNLERLMHLAGRNGRELSVRTIQHLFARTDSFAEALAVFYTMRRCHVAMNMEAYYSMLYSLQRLEEEGWGQHFRNEYEENGAPSEQAMDFIVKGISNALLPENKPWLGRVMFQDRNVPDRRYDTRDFDELDTAWTQRYKSGTPAGAH,not soluble
7,MAHHHHHHMRRSSMKFGLRQILSEELGKAAIFLRFKANEYIASTARACQTLTGAETNPEQANKRRKHRQVYEEILRQRQQVAQEAARRAMEGKSLRERLMASASAALKGLKEATSTNAGALALLQHCTAAHAAEVAVEQGIDVKSVTMQVEERKTGSQVGSETVVVGYIDAPNTSEEEMMAFAEQLSKKCPMANAMRGKIEWRRANGEVQHNDEQTTGNDNSVGSTSDKAGDAGSIPHGMPGTRYYSHESMRRGAGGVGDGDELHLPGVTKGSGKGPDK,soluble
8,MAHHHHHHMRRVVITGLGLVSPLASGVEETWKRLLAGESGARRVTEFEVDDLACQIACRIPVGDGTNGTFNPDLHMDPKEQRKVDPFIVYAVGAADQALDDAGWHPENDEDQVRTGVLIGSGIGGIEGIVEAGYTLRDKGPRRISPFFIPGRLINLASGHVSIKHKLRGPNHSVVTACATGTHAIGDAARLIAFGDADVMVAGGTESPVSRISLAGFAACKALSTERNDDPTAASRPYDEDRDGFVMGEGAGIVVLEELEHALARGAKIYAEVIGYGMSGDAFHITAPTESGEGAQRCMVAALKRAGIVPDEIDYINAHGTSTMADTIELGAVERVVGEAAAKISMSSTKSSIGHLLGAAGAAEAVFSTLAIRDNIAPATLNLDNPAAQTRIDLVPHKPRERKIDVALSNSFGFGGTNASLVLRRYTA,soluble
9,MAHHHHHHMRSLTRIASAGVRLDNIDLIGCVGATAAAKLPYTWQVGKSFSDNSASAAAAGGRTTSKITGSVYAVHQQHLFLPLTIEIGFGVQMKHDKDEEYVSRLVGGVLVRVNSSGTYGMLLDSSRFIMAGSAEMIILSKGQAPILRTSR,not soluble
10,MAHHHHHHMRVTHHNNNNERSADRPPPSPHPHSQYYRQRYSLFRKTHRHAALTCSTRSSSSSPAVQQLRVIHFFHSLRHATATQYSHTCSMRCILFSSLYLWRHRKVLQPAASWCWKKYGAATVRVSVWLYSRFNSSSTNGLAAAIPAGSFSSSPQNRGRLTGPSNGVTPCPMRSCAPPSHVPLRSRRRTQHPHAIAGKIGPST,soluble
11,MAHHHHHHMSASAPRVGLLGAANIAWRAWTGVRANGMSVTRVGCRDVDRGRNFVKRVCDALKIDEAAVPAVCSYEELVSAADVDVVYIAIPVKARDHWVRECIKYKKHVVGEKPPATDAEMLRSWIEALDQQNLLYMDGTMLSHGKRVKEICAAVKQMGGPVKHIFANVTLGGDEAFLANNIRTNPELEPHGALGDLGWYCIRYALHLMDFQMPTEVTGRILKQNDKGAIISFIGDMTFEVGGEVALVSFFVSFEAAFEQTLHITTTEGMLQLDDMCLPMTSRPETVYYEVHNSSYDNVCESHNLHTEVKHTVNGDAPNSQCTELWGDVARILYADGEGDARRLKAKEESSRYWATVSWKTQAVMDKMLESALIGRNAAPTA,not soluble
12,MAHHHHHHMSETSACPLNDFFDIDEENNLDEIKKEEKDVFSGNFLSYIYNQFEFCCINFFDELKKKDKRKNITLKKNYSDGYSKNDNGQCYYNVFDKILKKDVDTIKEVSLHSIYFNPHADWCECAHEFNLELNHEEAEFCIFNFFLKMYRYEERNKDLLLSILLECLYSKKDMKKAFHIQKENLKFLKEIKNIETSNFKESLNELINIIENTNFIQFNANEKKDMQKYYFKLYIIIKIKYPYGIYIFNCDDVYDIVVIDCNTFMQNKPKIMSFLSLRKFISFLNNIYSININEENIYDSFPIIVYESKECYHLSHSHLPLNLTACTPKEKKKNSVKNHLNQSGNENENENKD,not soluble
13,MAHHHHHHMSGKLEDIGELVLLIGDFHSPMRNLGLPDCFKDLLKTDKIKHVLCTGNVGCRENLELLKNIADSVHITKGDMDDEYDFPEDISLTIGDFKMSLIHGHQIIPWGDTNALLQWQKKHDSDIVISGHTHKNSIVRYEGKYFINPGSATGAFQPWLSQPTPSFILMAVAKSSIVVYVYEEKNGKTNVEMSELQK,not soluble
